From patent US20130217027A1

How the values were obtained:
[1] = molecular target: IS (2): peptide ARTKQTAR without the methylation modification conjugated to a 125 bp DNA strand (Control-IS); test: ChIP of spiked conjugate, qPCR primer set H3_qPCR_short, well I1
[2] = molecular target: IS (1): peptide ARTK(me3)QTAR conjugated to a 125 bp DNA strand (H3K4me3-IS); test: ChIP qPCR primer set H3K4me3_qPCR; enrichment of H3K4me3-IS normalised to Control-IS (H3_qPCR)
[3] = molecular target: IS (1): peptide ARTK(me3)QTAR conjugated to a 125 bp DNA strand (H3K4me3-IS); test: ChIP of spiked conjugate, qPCR primer set H3K4me3_qPCR_long, well G2
[4] = molecular target: IS (1): peptide ARTK(me3)QTAR conjugated to a 125 bp DNA strand (H3K4me3-IS); test: ChIP of spiked conjugate, qPCR primer set H3K4me3_qPCR_short, well K1
[5] = molecular target: IS (1): peptide ARTK(me3)QTAR conjugated to a 125 bp DNA strand (H3K4me3-IS); test: ChIP qPCR primer set H3K4me3_qPCR_long; ratio of H3K4me3-antibody ChIP over H3K36me3-antibody ChIP
[6] = molecular target: IS (1): peptide ARTK(me3)QTAR conjugated to a 125 bp DNA strand (H3K4me3-IS); test: ChIP of spiked conjugate, qPCR primer set H3K4me3_qPCR_long, well G1
[7] = molecular target: IS (1): peptide ARTK(me3)QTAR conjugated to a 125 bp DNA strand (H3K4me3-IS); test: ChIP qPCR primer set H3K4me3_qPCR_short; enrichment of H3K4me3-IS normalised to Control-IS (H3_qPCR_short)
[8] = molecular target: IS (2): peptide ARTKQTAR without the methylation modification conjugated to a 125 bp DNA strand (Control-IS); test: ChIP of spiked conjugate, qPCR primer set H3_qPCR, well A2
[9] = molecular target: IS (1): peptide ARTK(me3)QTAR conjugated to a 125 bp DNA strand (H3K4me3-IS); test: ChIP qPCR primer set H3K4me3_qPCR_Vshort; ratio of H3K4me3-antibody ChIP over H3K36me3-antibody ChIP
[10] = molecular target: IS (2): peptide ARTKQTAR without the methylation modification conjugated to a 125 bp DNA strand (Control-IS); test: ChIP qPCR primer set H3_qPCR_long; ratio of H3K4me3-antibody ChIP over H3K36me3-antibody ChIP
[11] = molecular target: IS (2): peptide ARTKQTAR without the methylation modification conjugated to a 125 bp DNA strand (Control-IS); test: ChIP qPCR primer set H3_qPCR; ratio of H3K4me3-antibody ChIP over H3K36me3-antibody ChIP
[12] = molecular target: IS (1): peptide ARTK(me3)QTAR conjugated to a 125 bp DNA strand (H3K4me3-IS); test: ChIP qPCR primer set H3K4me3_qPCR_short; ratio of H3K4me3-antibody ChIP over H3K36me3-antibody ChIP
[13] = molecular target: IS (1): peptide ARTK(me3)QTAR conjugated to a 125 bp DNA strand (H3K4me3-IS); test: ChIP of spiked conjugate, qPCR primer set H3K4me3_qPCR_Vshort, well M1
[14] = molecular target: IS (2): peptide ARTKQTAR without the methylation modification conjugated to a 125 bp DNA strand (Control-IS); test: ChIP of spiked conjugate, qPCR primer set H3_qPCR, well A1
[15] = molecular target: IS (1): peptide ARTK(me3)QTAR conjugated to a 125 bp DNA strand (H3K4me3-IS); test: ChIP qPCR primer set H3K4me3_qPCR_Vshort; enrichment of H3K4me3-IS normalised to Control-IS
[16] = molecular target: IS (2): peptide ARTKQTAR without the methylation modification conjugated to a 125 bp DNA strand (Control-IS); test: ChIP of spiked conjugate, qPCR primer set H3_qPCR_short, well I2
[17] = molecular target: IS (2): peptide ARTKQTAR without the methylation modification conjugated to a 125 bp DNA strand (Control-IS); test: ChIP of spiked conjugate, qPCR primer set H3_qPCR_long, well E1
[18] = molecular target: IS (1): peptide ARTK(me3)QTAR conjugated to a 125 bp DNA strand (H3K4me3-IS); test: ChIP of spiked conjugate, qPCR primer set H3K4me3_qPCR, well C2
[19] = molecular target: IS (1): peptide ARTK(me3)QTAR conjugated to a 125 bp DNA strand (H3K4me3-IS); test: ChIP with 100 fg of internal standard spiked after sonication, qPCR
[20] = molecular target: IS (1): peptide ARTK(me3)QTAR conjugated to a 125 bp DNA strand (H3K4me3-IS); test: ChIP of spiked conjugate, qPCR primer set H3K4me3_qPCR_Vshort, well M2
[21] = molecular target: IS (2): peptide ARTKQTAR without the methylation modification conjugated to a 125 bp DNA strand (Control-IS); test: ChIP of spiked conjugate, qPCR primer set H3_qPCR_long, well E2
[22] = molecular target: IS (1): peptide ARTK(me3)QTAR conjugated to a 125 bp DNA strand (H3K4me3-IS); test: ChIP with 10 fg of internal standard spiked after sonication, qPCR
[23] = molecular target: IS (1): peptide ARTK(me3)QTAR conjugated to a 125 bp DNA strand (H3K4me3-IS); test: ChIP qPCR primer set H3K4me3_qPCR_long; enrichment of H3K4me3-IS normalised to Control-IS (H3_qPCR_long)
[24] = molecular target: IS (1): peptide ARTK(me3)QTAR conjugated to a 125 bp DNA strand (H3K4me3-IS); test: ChIP qPCR primer set H3K4me3_qPCR; ratio of H3K4me3-antibody ChIP over H3K36me3-antibody ChIP
[25] = molecular target: IS (1): peptide ARTK(me3)QTAR conjugated to a 125 bp DNA strand (H3K4me3-IS); test: ChIP of spiked conjugate, qPCR primer set H3K4me3_qPCR, well C1
[26] = molecular target: IS (2): peptide ARTKQTAR without the methylation modification conjugated to a 125 bp DNA strand (Control-IS); test: ChIP qPCR primer set H3_qPCR_short; ratio of H3K4me3-antibody ChIP over H3K36me3-antibody ChIP
[27] = molecular target: IS (1): peptide ARTK(me3)QTAR conjugated to a 125 bp DNA strand (H3K4me3-IS); test: ChIP of spiked conjugate, qPCR primer set H3K4me3_qPCR_short, well K2
[28] = molecular target: IS (1): peptide ARTK(me3)QTAR conjugated to a 125 bp DNA strand (H3K4me3-IS); test: ChIP of spiked conjugate, qPCR primer set H3K4me3_qPCR_Vshort, well M3
[29] = molecular target: IS (2): peptide ARTKQTAR without the methylation modification conjugated to a 125 bp DNA strand (Control-IS); test: ChIP of spiked conjugate, qPCR primer set H3_qPCR_long, well E3
[30] = molecular target: IS (1): peptide ARTK(me3)QTAR conjugated to a 125 bp DNA strand (H3K4me3-IS); test: ChIP of spiked conjugate, qPCR primer set H3K4me3_qPCR_long, well G4
[31] = molecular target: IS (2): peptide ARTKQTAR without the methylation modification conjugated to a 125 bp DNA strand (Control-IS); test: ChIP of spiked conjugate, qPCR primer set H3_qPCR, well A3
[32] = molecular target: IS (2): peptide ARTKQTAR without the methylation modification conjugated to a 125 bp DNA strand (Control-IS); test: ChIP of spiked conjugate, qPCR primer set H3_qPCR_short, well I4
[33] = molecular target: IS (1): peptide ARTK(me3)QTAR conjugated to a 125 bp DNA strand (H3K4me3-IS); test: ChIP of spiked conjugate, qPCR primer set H3K4me3_qPCR_long, well G3
[34] = molecular target: IS (2): peptide ARTKQTAR without the methylation modification conjugated to a 125 bp DNA strand (Control-IS); test: ChIP of spiked conjugate, qPCR primer set H3_qPCR_long, well E4
[35] = molecular target: IS (1): peptide ARTK(me3)QTAR conjugated to a 125 bp DNA strand (H3K4me3-IS); test: ChIP of spiked conjugate, qPCR primer set H3K4me3_qPCR_short, well K3
[36] = molecular target: IS (1): peptide ARTK(me3)QTAR conjugated to a 125 bp DNA strand (H3K4me3-IS); test: ChIP of spiked conjugate, qPCR primer set H3K4me3_qPCR_short, well K4
[37] = molecular target: IS (1): peptide ARTK(me3)QTAR conjugated to a 125 bp DNA strand (H3K4me3-IS); test: ChIP of spiked conjugate, qPCR primer set H3K4me3_qPCR, well C3
[38] = molecular target: IS (2): peptide ARTKQTAR without the methylation modification conjugated to a 125 bp DNA strand (Control-IS); test: ChIP of spiked conjugate, qPCR primer set H3_qPCR_short, well I3
[39] = molecular target: IS (2): peptide ARTKQTAR without the methylation modification conjugated to a 125 bp DNA strand (Control-IS); test: ChIP of spiked conjugate, qPCR primer set H3_qPCR, well A4
[40] = molecular target: IS (1): peptide ARTK(me3)QTAR conjugated to a 125 bp DNA strand (H3K4me3-IS); test: ChIP of spiked conjugate, qPCR primer set H3K4me3_qPCR, well C4
[41] = molecular target: IS (1): peptide ARTK(me3)QTAR conjugated to a 125 bp DNA strand (H3K4me3-IS); test: ChIP of spiked conjugate, qPCR primer set H3K4me3_qPCR_Vshort, well M4

For “antibody specific for H3K4me3 (Millipore, catalogue Number: 07-473, rabbit, polyclonal)”, which Cp (qPCR) [1] is on record?
Its Cp (qPCR) is 19.5.

And the (K4/K36)^K4-ChIP/(K4/K36)^K36-ChIP [2]?
The (K4/K36)^K4-ChIP/(K4/K36)^K36-ChIP was 26.6 fold.

And the Cp (qPCR) [3]?
Its Cp (qPCR) is 15.6.

What about the Cp (qPCR) [4] of the same substance?
The Cp (qPCR) was 14.2.

And the K4/K36 [5]?
Its K4/K36 is 37.8 fold.

What about the Cp (qPCR) [6] of the same substance?
Its Cp (qPCR) is 15.2.

What about the (K4/K36)^K4-ChIP/(K4/K36)^K36-ChIP [7] of the same substance?
Its (K4/K36)^K4-ChIP/(K4/K36)^K36-ChIP is 52.7 fold.

What about the Cp (qPCR) [8] of the same substance?
The Cp (qPCR) was 20.4.

And the K4/K36 [9]?
The K4/K36 was 75.6 fold.

And the K4/K36 [10]?
Its K4/K36 is 0.862 fold.

What about the K4/K36 [11] of the same substance?
Its K4/K36 is 1.16 fold.

And the K4/K36 [12]?
Its K4/K36 is 45.9 fold.

And the Cp (qPCR) [13]?
The Cp (qPCR) was 14.

What about the Cp (qPCR) [14] of the same substance?
The Cp (qPCR) was 20.4.

And the (K4/K36)^K4-ChIP/(K4/K36)^K36-ChIP [15]?
The (K4/K36)^K4-ChIP/(K4/K36)^K36-ChIP was 86.8 fold.

What about the Cp (qPCR) [16] of the same substance?
The Cp (qPCR) was 19.9.

What about the Cp (qPCR) [17] of the same substance?
Its Cp (qPCR) is 20.4.

And the Cp (qPCR) [18]?
Its Cp (qPCR) is 15.2.

And the qPCR cycle of enrichment [19]?
The qPCR cycle of enrichment was 26 cycle.

What about the Cp (qPCR) [20] of the same substance?
The Cp (qPCR) was 14.4.

What about the Cp (qPCR) [21] of the same substance?
The Cp (qPCR) was 20.5.

What about the qPCR cycle of enrichment [22] of the same substance?
The qPCR cycle of enrichment was 30 cycle.

And the (K4/K36)^K4-ChIP/(K4/K36)^K36-ChIP [23]?
Its (K4/K36)^K4-ChIP/(K4/K36)^K36-ChIP is 43.9 fold.

And the K4/K36 [24]?
The K4/K36 was 30.9 fold.

What about the Cp (qPCR) [25] of the same substance?
Its Cp (qPCR) is 14.7.

And the K4/K36 [26]?
Its K4/K36 is 0.871 fold.

And the Cp (qPCR) [27]?
Its Cp (qPCR) is 14.9.

For “non-relevant control antibody that should recognize H3K36me3 (Abcam, catalogue Number: ab9050, rabbit, polyclonal)”, which Cp (qPCR) [28] is on record?
Its Cp (qPCR) is 20.1.

And the Cp (qPCR) [29]?
The Cp (qPCR) was 20.6.

What about the Cp (qPCR) [30] of the same substance?
Its Cp (qPCR) is 20.9.

And the Cp (qPCR) [31]?
The Cp (qPCR) was 20.3.

And the Cp (qPCR) [32]?
Its Cp (qPCR) is 19.9.

What about the Cp (qPCR) [33] of the same substance?
Its Cp (qPCR) is 20.4.

And the Cp (qPCR) [34]?
Its Cp (qPCR) is 19.9.

And the Cp (qPCR) [35]?
The Cp (qPCR) was 19.9.

And the Cp (qPCR) [36]?
Its Cp (qPCR) is 20.2.

And the Cp (qPCR) [37]?
Its Cp (qPCR) is 19.9.

What about the Cp (qPCR) [38] of the same substance?
Its Cp (qPCR) is 19.1.

And the Cp (qPCR) [39]?
Its Cp (qPCR) is 21.

And the Cp (qPCR) [40]?
The Cp (qPCR) was 19.9.

What about the Cp (qPCR) [41] of the same substance?
Its Cp (qPCR) is 20.9.
